Assay results: the supplement of paper PMC10567573

B1: ETS1 (parent)
chain: FSEPSFITESYQTLHPISSEELLS
B2: DYRK1B (parent)
chain: KKVLNHGYDDDNHDYIVRSGERWL

Variants of: B1
Experiment: protein stability index of a GFP-peptide fusion (GPS, HEK-293T) (PSI 1-6); higher = more stable
Settings: c terminus: a fixed tail appended
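Also: lentivirally expressed fusions sorted by FACS into six bins by GFP to DsRed ratio, PSI derived from sequencing read proportions per bin multiplied by bin number.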

| Variant | protein stability index |
| --- | --- |
| FSEPSFITESYQTLHPISSEELLI | 1.85 |
| FSEPSFITESYQTLHPISSEELLP | 2.04 |
| FSEPSFITESYQTLHPISSEELLK | 2.49 |
| FSEPSFITESYQTLHPISSEELLQ | 2.16 |
| FSEPSFITESYQTLHPISSEELLN | 1.79 |
| FSEPSFITESYQTLHPISSEELLW | 1.56 |
| FSEPSFITESYQTLHPISSEELLT | 1.99 |
| FSEPSFITESYQTLHPISSEELLR | 1.86 |
| FSEPSFITESYQTLHPISSEELLE | 2.54 |
| FSEPSFITESYQTLHPISSEELLF | 1.65 |
| FSEPSFITESYQTLHPISSEELLV | 1.62 |
| FSEPSFITESYQTLHPISSEELLH | 1.91 |
| FSEPSFITESYQTLHPISSEELLM | 1.97 |
| FSEPSFITESYQTLHPISSEELLL | 1.69 |
| FSEPSFITESYQTLHPISSEELLY | 1.79 |
| FSEPSFITESYQTLHPISSEELLG | 1.86 |

Variants of: B2
Experiment: as above
Settings: c terminus: a fixed tail appended

| Variant | protein stability index |
| --- | --- |
| KKVLNHGYDDDNHDYIVGSGERWL | 3.45 |
| KKVLNHGYDDDNHDYIVSSGERWL | 3.1 |
| KKVLNHGYDDDNHDYIVYSGERWL | 2.48 |
| KKVLNHGYDDDNHDYIVPSGERWL | 3.24 |
| KKVLNHGYDDDNHDYIVFSGERWL | 2.39 |
| KKVLNHGYDDDNHDYIVQSGERWL | 3.78 |
| KKVLNHGYDDDNHDYIVKSGERWL | 3.74 |
| KKVLNHGYDDDNHDYIVISGERWL | 2.62 |
| KKVLNHGYDDDNHDYIVESGERWL | 3.75 |
| KKVLNHGYDDDNHDYIQRSGERWL | 3.57 |
| KKVLNHGYDDDNHDYIHRSGERWL | 3.46 |
| KKVLNHGYDDDNHDYIGRSGERWL | 3.36 |
| KKVLNHGYDDDNHDYIMRSGERWL | 2.98 |
| KKVLNHGYDDDNHDYITRSGERWL | 2.97 |
| KKVLNHGYDDDNHDYINRSGERWL | 3.65 |
| KKVLNHGYDDDNHDYIERSGERWL | 4.03 |
| KKVLNHGYDDDNHDYISRSGERWL | 3.36 |
| KKVLNHGYDDDNHDYIPRSGERWL | 3.86 |
| KKVLNHGYDDDNHDYIDRSGERWL | 3.56 |
| HKVLNHGYDDDNHDYIVRSGERWL | 3.39 |
| QKVLNHGYDDDNHDYIVRSGERWL | 2.74 |
| WKVLNHGYDDDNHDYIVRSGERWL | 2.07 |
| NKVLNHGYDDDNHDYIVRSGERWL | 2.95 |
| LKVLNHGYDDDNHDYIVRSGERWL | 2.48 |
| GKVLNHGYDDDNHDYIVRSGERWL | 3.5 |
| MKVLNHGYDDDNHDYIVRSGERWL | 3.09 |

| Variant | protein stability index |
| --- | --- |
| CKVLNHGYDDDNHDYIVRSGERWL | 2.38 |
| KKVENHGYDDDNHDYIVRSGERWL | 3.56 |
| KKVRNHGYDDDNHDYIVRSGERWL | 3.38 |
| KKVTNHGYDDDNHDYIVRSGERWL | 3.86 |
| KKVFNHGYDDDNHDYIVRSGERWL | 2.59 |
| KKVMNHGYDDDNHDYIVRSGERWL | 2.88 |
| KKVHNHGYDDDNHDYIVRSGERWL | 3.27 |
| KKVSNHGYDDDNHDYIVRSGERWL | 3.27 |
| KKVLNHGYDDDNHRYIVRSGERWL | 2.86 |
| KKVLNHGYDDDNHEYIVRSGERWL | 3.03 |
| KKVLNHGYDDDNHCYIVRSGERWL | 2.64 |
| KKVLNHGYDDDNHVYIVRSGERWL | 2.13 |
| KKVLNHGYDDDNHDYYVRSGERWL | 3.89 |
| KKVLNHGYDDDNHDYQVRSGERWL | 3.58 |
| KKVLNHGYDDDNHDYLVRSGERWL | 3.09 |
| KKVLNHGYDDDNHDYNVRSGERWL | 3.24 |
| KKVLNHGYDDDNHDYHVRSGERWL | 3.23 |
| KKVLNHGYDDDNHDYGVRSGERWL | 3.71 |
| KKVLNHGYDDDNHDYTVRSGERWL | 3.47 |
| KKVLNHGYDDDNHDYCVRSGERWL | 3.48 |
| KKVLNHGYDDANHDYIVRSGERWL | 3.09 |
| KKVLNHGYDDKNHDYIVRSGERWL | 2.92 |
| KKVLNHGYDDPNHDYIVRSGERWL | 2.58 |
| KKVLNHGYDDSNHDYIVRSGERWL | 3.03 |
| KKVLNHGYDDGNHDYIVRSGERWL | 2.85 |
| KKVLNHGYDDRNHDYIVRSGERWL | 2.37 |

| Variant | protein stability index |
| --- | --- |
| KKVLNHGYDDNNHDYIVRSGERWL | 2.89 |
| KKVLNHGYDDINHDYIVRSGERWL | 2.5 |
| KKVLNHGYDDDNHDYIVRSGENWL | 3.31 |
| KKVLNHGYDDDNHDYIVRSGEQWL | 3.53 |
| KKVLNHGYDDDNHDYIVRSGEKWL | 3.29 |
| KKVLNHGYDDDNHDYIVRSGEDWL | 3.44 |
| KKVLNHGYDDDNHDYIVRSGEGWL | 3.19 |
| KKVLNHGYDDDNHDYIVRSGETWL | 2.83 |
| KKVLNHGYDDDNHDYIVRSGEFWL | 1.91 |
| KKVLNHGYDDDNHDYIVRSGEEWL | 3.58 |
| KKVLNHGYFDDNHDYIVRSGERWL | 2.61 |
| KKVLNHGYTDDNHDYIVRSGERWL | 2.75 |
| KKVLNHGYQDDNHDYIVRSGERWL | 2.94 |
| KKVLNHGYIDDNHDYIVRSGERWL | 2.52 |
| KKVLNHGYNDDNHDYIVRSGERWL | 2.63 |
| KKVLNHGYPDDNHDYIVRSGERWL | 3.12 |
| KKVLNHGYRDDNHDYIVRSGERWL | 2.74 |
| KKVLNHGYYDDNHDYIVRSGERWL | 2.17 |
| KKVLNHGYDDDNHDYIVRSGERWI | 3.33 |
| KKVLNHGYDDDNHDYIVRSGERWD | 4.08 |
| KKVLNHGYDDDNHDYIVRSGERWV | 3.8 |
| KKVLNHGYDDDNHDYIVRSGERWG | 3.81 |
| KKVLNHGYDDDNHDYIVRSGERWY | 3.03 |
| KKVLNHGYDDDNHDYIVRSGERWN | 3.75 |
| KKVLNHGYDDDNHDYIVRSGERWT | 3.51 |
| KKVLNHGYDDDNHDYIVRSGERWA | 3.37 |
